Source: patent publication US20200270325A1 (Merck Sharp & Dohme, published 2020)
Numbered stars: 1 amine (or outer) side, 2 acyl side, 3 side chain; on linkers, the order of the positions; unused ones are H or OH. Square brackets hold non-standard residues; d marks the D form. Primed or numbered codes have the meaning given here. Side chains are listed from the residue outwards. Ends that are not written are not given here. * marks the point of attachment. Phe(4-CH2NH2) = NCc1ccc(C[C@H](N)C(=O)O)cc1; C18 diacid = O=C(O)CCCCCCCCCCCCCCCCC(=O)*; γGlu = O=C(O)[C@H](CCC(=O)[*:2])N[*:1]; Met(O2) = CS(=O)(=O)CC[C@H](N)C(=O)O; αMeD = C[C@](N)(CC(=O)O)C(=O)O; PEG2′ = not defined here; AEEA = NCCOCCOCC(=O)O; Aib = CC(C)(N)C(=O)O

Tests used:
[1] = molecular target: human Glucagon receptor (GCGR) (human, UniProt P47871 26-477); assay: cell-based or functional assay
Chain of human Glucagon receptor (GCGR) (P47871 26-477): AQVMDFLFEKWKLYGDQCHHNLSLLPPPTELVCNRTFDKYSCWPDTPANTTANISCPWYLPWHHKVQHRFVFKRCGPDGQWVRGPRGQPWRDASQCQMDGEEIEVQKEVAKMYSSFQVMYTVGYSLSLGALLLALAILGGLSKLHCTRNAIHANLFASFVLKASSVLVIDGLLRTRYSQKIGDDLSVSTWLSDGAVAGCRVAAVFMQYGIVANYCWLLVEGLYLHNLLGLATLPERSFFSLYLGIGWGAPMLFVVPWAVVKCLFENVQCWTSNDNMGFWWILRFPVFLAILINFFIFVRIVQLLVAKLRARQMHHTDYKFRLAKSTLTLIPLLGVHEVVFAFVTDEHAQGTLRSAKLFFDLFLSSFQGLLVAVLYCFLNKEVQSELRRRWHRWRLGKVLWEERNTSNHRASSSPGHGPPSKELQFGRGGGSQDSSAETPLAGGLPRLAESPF

[2] = molecular target: human GLP-1 receptor (GLP1R) (human, UniProt P43220 24-463); assay: cell-based or functional assay

Binder	GCGR EC50 human [1] [nM]	GLP1R EC50 human [2] [nM]
H[Aib]QGTFTSDYSKYLDARAA[Phe(4-CH2NH2)]([AEEA-AEEA-AEEA-γGlu-C18 diacid])DFVQWLLDT-NH2 (N-terminus assumed; SMILES CC(C)C[C@H](NC(=O)[C@H](Cc1ccc(O)cc1)NC(=O)[C@H](CCCCN)NC(=O)[C@H](CO)NC(=O)[C@H](Cc1ccc(O)cc1)NC(=O)[C@H](CC(=O)O)NC(=O)[C@H](CO)NC(=O)[C@@H](NC(=O)[C@H](Cc1ccccc1)NC(=O)[C@@H](NC(=O)CNC(=O)[C@H](CCC(N)=O)NC(=O)C(C)(C)NC(=O)[C@@H](N)Cc1c[nH]cn1)[C@@H](C)O)[C@@H](C)O)C(=O)N[C@@H](CC(=O)O)C(=O)N[C@@H](C)C(=O)N[C@@H](CCCNC(=N)N)C(=O)N[C@@H](C)C(=O)N[C@@H](C)C(=O)N[C@@H](Cc1ccc(CNC(=O)COCCOCCNC(=O)COCCOCCNC(=O)COCCOCCNC(=O)CC[C@H](NC(=O)CCCCCCCCCCCCCCCCC(=O)O)C(=O)O)cc1)C(=O)N[C@@H](CC(=O)O)C(=O)N[C@@H](Cc1ccccc1)C(=O)N[C@H](C(=O)N[C@@H](CCC(N)=O)C(=O)N[C@@H](Cc1c[nH]c2ccccc12)C(=O)N[C@@H](CC(C)C)C(=O)N[C@@H](CC(C)C)C(=O)N[C@@H](CC(=O)O)C(=O)N[C@H](C(N)=O)[C@@H](C)O)C(C)C) [TP678]	0.25	0.91
H[Aib]QGTFTSDYSKYLDARAAQ[Phe(4-CH2NH2)]([AEEA-AEEA-AEEA-γGlu-C18 diacid])FVQWLLDT-NH2 (N-terminus assumed; SMILES CC(C)C[C@H](NC(=O)[C@H](Cc1ccc(O)cc1)NC(=O)[C@H](CCCCN)NC(=O)[C@H](CO)NC(=O)[C@H](Cc1ccc(O)cc1)NC(=O)[C@H](CC(=O)O)NC(=O)[C@H](CO)NC(=O)[C@@H](NC(=O)[C@H](Cc1ccccc1)NC(=O)[C@@H](NC(=O)CNC(=O)[C@H](CCC(N)=O)NC(=O)C(C)(C)NC(=O)[C@@H](N)Cc1c[nH]cn1)[C@@H](C)O)[C@@H](C)O)C(=O)N[C@@H](CC(=O)O)C(=O)N[C@@H](C)C(=O)N[C@@H](CCCNC(=N)N)C(=O)N[C@@H](C)C(=O)N[C@@H](C)C(=O)N[C@@H](CCC(N)=O)C(=O)N[C@@H](Cc1ccc(CNC(=O)COCCOCCNC(=O)COCCOCCNC(=O)COCCOCCNC(=O)CC[C@H](NC(=O)CCCCCCCCCCCCCCCCC(=O)O)C(=O)O)cc1)C(=O)N[C@@H](Cc1ccccc1)C(=O)N[C@H](C(=O)N[C@@H](CCC(N)=O)C(=O)N[C@@H](Cc1c[nH]c2ccccc12)C(=O)N[C@@H](CC(C)C)C(=O)N[C@@H](CC(C)C)C(=O)N[C@@H](CC(=O)O)C(=O)N[C@H](C(N)=O)[C@@H](C)O)C(C)C) [TP679]	0.13	0.18
H[Aib]QGTFTSDYSKYLDARAAQDFVK([PEG2′-PEG2′-PEG2′-γGlu-C18‑OH])WL[Met(O2)]DT-NH2 [TP680]	0.59	0.19
H[Aib]QGTFTSDYSKYLDARAAQK([AEEA-AEEA-γGlu-C18 diacid])FVQWL[Met(O2)][αMeD]T-NH2 (N-terminus assumed; SMILES CC(C)C[C@H](NC(=O)[C@H](Cc1ccc(O)cc1)NC(=O)[C@H](CCCCN)NC(=O)[C@H](CO)NC(=O)[C@H](Cc1ccc(O)cc1)NC(=O)[C@H](CC(=O)O)NC(=O)[C@H](CO)NC(=O)[C@@H](NC(=O)[C@H](Cc1ccccc1)NC(=O)[C@@H](NC(=O)CNC(=O)[C@H](CCC(N)=O)NC(=O)C(C)(C)NC(=O)[C@@H](N)Cc1c[nH]cn1)[C@@H](C)O)[C@@H](C)O)C(=O)N[C@@H](CC(=O)O)C(=O)N[C@@H](C)C(=O)N[C@@H](CCCNC(=N)N)C(=O)N[C@@H](C)C(=O)N[C@@H](C)C(=O)N[C@@H](CCC(N)=O)C(=O)N[C@@H](CCCCNC(=O)COCCOCCNC(=O)COCCOCCNC(=O)CC[C@H](NC(=O)CCCCCCCCCCCCCCCCC(=O)O)C(=O)O)C(=O)N[C@@H](Cc1ccccc1)C(=O)N[C@H](C(=O)N[C@@H](CCC(N)=O)C(=O)N[C@@H](Cc1c[nH]c2ccccc12)C(=O)N[C@@H](CC(C)C)C(=O)N[C@@H](CCS(C)(=O)=O)C(=O)N[C@@](C)(CC(=O)O)C(=O)N[C@H](C(N)=O)[C@@H](C)O)C(C)C) [TP681]	0.27	0.15
H[Aib]QGTFTSDYSKYLD[Aib]RAAQDFVQWLL[Phe(4-CH2NH2)]([AEEA-AEEA-γGlu-C18 diacid])TK-{γGlu-NH2} [TP682]	2.35	2.31
H[Aib]QGTFTSDYSKYLD[Aib]RAAQDFVQWLLK([AEEA-AEEA-γGlu-C18 diacid])TK-{γGlu-NH2} [TP683]	4.97	0.62
HXQGTFTSDXSKYLDARAAQDFVXWLXDT (D-Ser (s) at 2; pAF(γEγEC16) at 10; K(PEG2PEG2γEC16-OH) at 24; L-methionine sulphone (2) at 27; C-terminal amide) [TP693]	1.1	> 4.9
H[Aib]QGTFTSEYSKKLDARAAQDFVK([AEEA-AEEA-γGlu-C18 diacid])WL[Met(O2)]DT-NH2 (N-terminus assumed; SMILES CC(C)C[C@H](NC(=O)[C@H](CCCCN)NC(=O)[C@H](CCCCN)NC(=O)[C@H](CO)NC(=O)[C@H](Cc1ccc(O)cc1)NC(=O)[C@H](CCC(=O)O)NC(=O)[C@H](CO)NC(=O)[C@@H](NC(=O)[C@H](Cc1ccccc1)NC(=O)[C@@H](NC(=O)CNC(=O)[C@H](CCC(N)=O)NC(=O)C(C)(C)NC(=O)[C@@H](N)Cc1c[nH]cn1)[C@@H](C)O)[C@@H](C)O)C(=O)N[C@@H](CC(=O)O)C(=O)N[C@@H](C)C(=O)N[C@@H](CCCNC(=N)N)C(=O)N[C@@H](C)C(=O)N[C@@H](C)C(=O)N[C@@H](CCC(N)=O)C(=O)N[C@@H](CC(=O)O)C(=O)N[C@@H](Cc1ccccc1)C(=O)N[C@H](C(=O)N[C@@H](CCCCNC(=O)COCCOCCNC(=O)COCCOCCNC(=O)CC[C@H](NC(=O)CCCCCCCCCCCCCCCCC(=O)O)C(=O)O)C(=O)N[C@@H](Cc1c[nH]c2ccccc12)C(=O)N[C@@H](CC(C)C)C(=O)N[C@@H](CCS(C)(=O)=O)C(=O)N[C@@H](CC(=O)O)C(=O)N[C@H](C(N)=O)[C@@H](C)O)C(C)C) [TP699]	> 19.8	> 19.8
H[Aib]QGTFTSDYSEYLDKRAAQDFVK([AEEA-AEEA-γGlu-C18 diacid])WL[Met(O2)]DT-NH2 (N-terminus assumed; SMILES CC(C)C[C@H](NC(=O)[C@H](Cc1ccc(O)cc1)NC(=O)[C@H](CCC(=O)O)NC(=O)[C@H](CO)NC(=O)[C@H](Cc1ccc(O)cc1)NC(=O)[C@H](CC(=O)O)NC(=O)[C@H](CO)NC(=O)[C@@H](NC(=O)[C@H](Cc1ccccc1)NC(=O)[C@@H](NC(=O)CNC(=O)[C@H](CCC(N)=O)NC(=O)C(C)(C)NC(=O)[C@@H](N)Cc1c[nH]cn1)[C@@H](C)O)[C@@H](C)O)C(=O)N[C@@H](CC(=O)O)C(=O)N[C@@H](CCCCN)C(=O)N[C@@H](CCCNC(=N)N)C(=O)N[C@@H](C)C(=O)N[C@@H](C)C(=O)N[C@@H](CCC(N)=O)C(=O)N[C@@H](CC(=O)O)C(=O)N[C@@H](Cc1ccccc1)C(=O)N[C@H](C(=O)N[C@@H](CCCCNC(=O)COCCOCCNC(=O)COCCOCCNC(=O)CC[C@H](NC(=O)CCCCCCCCCCCCCCCCC(=O)O)C(=O)O)C(=O)N[C@@H](Cc1c[nH]c2ccccc12)C(=O)N[C@@H](CC(C)C)C(=O)N[C@@H](CCS(C)(=O)=O)C(=O)N[C@@H](CC(=O)O)C(=O)N[C@H](C(N)=O)[C@@H](C)O)C(C)C) [TP700]	> 4.9	0.35
H[Aib]QGTFTSDYSKYLDARAAQ[Phe(4-CH2NH2)]([AEEA-AEEA-γGlu-C20‑OH])FVQWLLDT-NH2 [TP585]	1.13	0.566
H[Aib]QGTFTSDYSKYLDERAAKDFVK([AEEA-AEEA-γGlu-C18 diacid])WL[Met(O2)]DT-NH2 (N-terminus assumed; SMILES CC(C)C[C@H](NC(=O)[C@H](Cc1ccc(O)cc1)NC(=O)[C@H](CCCCN)NC(=O)[C@H](CO)NC(=O)[C@H](Cc1ccc(O)cc1)NC(=O)[C@H](CC(=O)O)NC(=O)[C@H](CO)NC(=O)[C@@H](NC(=O)[C@H](Cc1ccccc1)NC(=O)[C@@H](NC(=O)CNC(=O)[C@H](CCC(N)=O)NC(=O)C(C)(C)NC(=O)[C@@H](N)Cc1c[nH]cn1)[C@@H](C)O)[C@@H](C)O)C(=O)N[C@@H](CC(=O)O)C(=O)N[C@@H](CCC(=O)O)C(=O)N[C@@H](CCCNC(=N)N)C(=O)N[C@@H](C)C(=O)N[C@@H](C)C(=O)N[C@@H](CCCCN)C(=O)N[C@@H](CC(=O)O)C(=O)N[C@@H](Cc1ccccc1)C(=O)N[C@H](C(=O)N[C@@H](CCCCNC(=O)COCCOCCNC(=O)COCCOCCNC(=O)CC[C@H](NC(=O)CCCCCCCCCCCCCCCCC(=O)O)C(=O)O)C(=O)N[C@@H](Cc1c[nH]c2ccccc12)C(=O)N[C@@H](CC(C)C)C(=O)N[C@@H](CCS(C)(=O)=O)C(=O)N[C@@H](CC(=O)O)C(=O)N[C@H](C(N)=O)[C@@H](C)O)C(C)C) [TP701]	> 4.9	0.18
